# Article PMC9307002, “Carboxyl Methyltransferase Catalysed Formation of Mono‐ and Dimethyl Esters under Aqueous Conditions: Application in Cascade Biocatalysis” (Angewandte Chemie (International Ed. in English), 2022)
# B1: FtpM (Aspergillus fumigatus Af293) (protein)
# chain: MTQSNGNAVSSASDPYRLNRNIAASTRLSLQHYIWKENMGYLLHPSIDVSRPDLAIADVGTGTAIWILDLLRQLPNAKFHGFDISSEQYPAPGFLPPNVSLSKLDILGEIPEEYREKFDVVHARLLVQVVNQAGSDPVPVIRNMMKLLKPGGYLQWEEPNDDASKRPIVKADPANSSENAEKLLQRLDARFRAATPASWSVALAETFKEQGLQNVVREEFSTDTYLLLLDQTNYLGLFGELISKLDGDLKEELTQLHANTVAEARKGLSWKVRRFAFLGQKP
# notes: recombinant, C-terminal His-tag; dimer (modelled)
# Legend:
# Experiment in all cases: methyltransferase kinetics
# Format in all cases: biochemical, Aspergillus fumigatus
# Details in all cases: methyl donor SAM
# [1] = substrate: O=C(O)/C=C/C(=O)N[C@@H](Cc1ccc(O)cc1)C(=O)O
# [2] = substrate: COC(=O)c1ccc(C(=O)O)o1
# [3] = substrate: COC(=O)c1ccc(C(=O)O)cc1
# [4] = substrate: O=C(O)c1ccc(C(=O)O)cc1
# [5] = substrate: O=C(O)c1ccc(C(=O)O)o1
protein,measurement,setting,value
B1,Km,[1],680 µM
same,kcat,[1],0.00105 s⁻¹
same,Km,[2],1400 µM
same,kcat,[2],8.3e-05 s⁻¹
same,Km,[3],1510 µM
same,kcat,[3],8.17e-05 s⁻¹
same,Km,[4],72 µM
same,kcat,[4],0.0148 s⁻¹
same,Km,[5],520 µM
same,kcat,[5],0.00033 s⁻¹
